For series [1], the target named is T1, MucR1 (Sinorhizobium fredii CCBAU45436, UniProt C3M8K5 1-143, A8T;V56I).
T1 sequence: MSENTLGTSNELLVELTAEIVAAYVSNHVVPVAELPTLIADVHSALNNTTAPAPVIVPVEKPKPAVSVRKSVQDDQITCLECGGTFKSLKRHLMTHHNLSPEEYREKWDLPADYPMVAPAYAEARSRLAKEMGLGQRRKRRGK
In words: EMSA.

Series [2] concerns the target T1, MucR1. In words: EMSA. The source holds these as a separate data set. In general terms: In EMSA bound probe runs differently from free probe, usually more slowly.

Where two headings read alike, the source gives them in different places.

B1: motif_b3 (dsDNA)
DNA 1: ATGCTTCCAAGTTGTTTAGGT
DNA 2: ACCTAAACAACTTGGAAGCAT
As for B1, the binding result in series [1] is on record as “binds”.

B2: motif_b5 (dsDNA)
DNA 1: TTTAAATCACCTATTTATATT
DNA 2: AATATAAATAGGTGATTTAAA
B2: the binding result in series [1] is “binds”.

B3: motif_b4 (dsDNA)
DNA 1: TTATATTGACCGACTGAGATA
DNA 2: TATCTCAGTCGGTCAATATAA
B3: the binding result in series [1] is on record as “binds”.

B4: spacer S2 (primer name spacer1) (dsDNA)
DNA 1: GCCCAGTTCTACTCCATTTTTAGTAGAAA
DNA 2: TTTCTACTAAAAATGGAGTAGAACTGGGC
As for B4, the binding result in series [1] was “binds”.

B5: motif_b6 (dsDNA)
DNA 1: ATAGACAACGCAAAGTATTGA
DNA 2: TCAATACTTTGCGTTGTCTAT
For the molecule B5, the binding result in series [1] is “binds”.

B6: motif_a1 (dsDNA)
DNA 1: GTTGTTTAGGTATTTTTTGGGGAATTGAAT
DNA 2: ATTCAATTCCCCAAAAAATACCTAAACAAC
In the case of B6, the binding result in series [1] is reported as “binds”.

B7: motif_b7 (dsDNA)
DNA 1: ATTGATATATCCATAGACAAC
DNA 2: GTTGTCTATGGATATATCAAT
For the molecule B7, the binding result in series [1] was “binds”.

B8: spacer S3 (dsDNA)
DNA 1: AATTATCGGGATCGGGGGATAATGACA
DNA 2: TGTCATTATCCCCCGATCCCGATAATT
For the molecule B8, the binding result in series [1] is “binds”.

B9: motif_b1(2) (dsDNA)
DNA 1: GGTATTTTTTGGGGAATTGAAT
DNA 2: ATTCAATTCCCCAAAAAATACC
Take B9: in series [1], the binding result was “binds”.

B10: spacer S1 (primer name spacer2) (dsDNA)
DNA 1: GCCCAGTTCTACTCCATTTT
DNA 2: AAAATGGAGTAGAACTGGGC
Turning to B10, the binding result in series [1] is recorded as “binds”.

B11: motif_b8 (dsDNA)
DNA 1: CAATTGTATTGATATATCCAT
DNA 2: ATGGATATATCAATACAATTG
For B11, the binding result in series [2] is “binds”.

B12: spacer S4 (dsDNA)
DNA 1: AAACATTGACTGTATATAATTTTA
DNA 2: TAAAATTATATACAGTCAATGTTT
In the case of B12, the binding result in series [1] is given as “binds”.

These data come from PMC9410896.
